The values below come from the nanobody polyreactivity screen of Harvey et al. (2022).

A short description of this data set: yeast display, Sf9 membrane polyspecificity reagent, FACS + sequencing; frameworks hold sequencing errors. The essentials:
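A nanobody's polyreactivity label depends on the gate it was sorted from. Yeast display cells were stained with 10% biotinylated, detergent-solubilized Sf9 membrane reagent for 1 hour at 4 °C, enriched on streptavidin microbeads and sorted by FACS. The low and high (top ~1%) gates were set on anti-HA fluorescence for expression and streptavidin fluorescence for reagent binding.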
Regarding “QVQLVESGGGLVQAGGSLRLSCAASGRIFSGNTMGWYRPAPGKERELVAAISKSGGRTYYADSVKGRFPISRVNAKNTVYLQMNSLKPEDTAVYYCNADYRSHYLYDYWGQGTQVTVSS”, the “polyreactivity (PSR sort gate)” value was “low polyreactivity”.

Turning to “QVQLVESGGGLVQAGGSLRLSCAASGRNFKFYAMGWYRQAPGKERELVAGINTDGGSTYYADSVKGRFTISRDNAKNTVYLQMNSLKPEDTAVYYCNAYYYKPARKYARHYDYWGQGTQVTVSS”, the “polyreactivity (PSR sort gate)” value is “low polyreactivity”.

For “QVQLVESGGVLVQAGGSLRLSCAASGSTFYGYAMGWYRQAPAKERELVAAITRSGGSTYYADSVKGRFTISRDNAKNTVYLQMNSLKPEDTAVYYCARQDRDTYYHRYYYGGQGTQVTVSS”, the “polyreactivity (PSR sort gate)” value is “high polyreactivity”.

Consider “QVQLVESGGGLVQAGGSLRLTCAASGSIFGNNAMGWYRQATGKERELVAVITDGGNTYYADSVKGRFTISRDNAKNTVYLQMNSLKPEDTAVYYCNAEWWGDSVYWGQGTQVTVSS”, for which the “polyreactivity (PSR sort gate)” value is on record as “low polyreactivity”.

In the case of “QVQLVESGGGLVQAGGSLRLSCPASGSTFAIYGMGWYRQAPGKERELVAGITRGGSTNYADSVKGRFTISRDNAKNTVYLQMNILKPEDTAVYYCNSPLGVRRFKSKGRSHYEYWGQGTQVSVSS”, the “polyreactivity (PSR sort gate)” value is on record as “high polyreactivity”.

For “QVQVVESGGGLVQAGGSLRLSCAASGFTSTRYAMGWYRQAPGKERELVAAISYGGGDTYYADSVKGRFTISRDNAKNSVYLQMNSMKPEDTAVYYCNARGRYRKSERRAFDYWGQGTQVTVSS”, the “polyreactivity (PSR sort gate)” value is listed as “high polyreactivity”.

As to “QVQLVESGGGLVQAGGSLRLSCAGSGYILFAYAMGWSRQAPGKERELVATITTSGGITYYADSVKGRFTISRDNAKNTVYLQMNSLKPEDTEVYYWAAAEGGGLVTYDYWGQGSQVTVSS”, the “polyreactivity (PSR sort gate)” value was “low polyreactivity”.

Turning to “QVQLVESGGGLVQAGGSLRLSCAASGSTFIRNAMGWYRQAPGKERELVAAISSSGGRTYYADSVKGRFTISRDNAKNTVYLQMNSLKPEDTAVYYCAARAVGAYYSSYSHGAGYYYWGQGTQLTVSS”, the “polyreactivity (PSR sort gate)” value was “high polyreactivity”.

For “QVQLVESGGGLVQAGGSLRLSCAASGRIFRYNVMGWYRQPPGKERELVAAIRWSGGSTYYADSVKGRFTISRDNAKNTVYLQMNSLKPEDTAVYYCNTVGRWRGYDYWGQGTQVTVSS”, the “polyreactivity (PSR sort gate)” value is listed as “high polyreactivity”.

As to “QVQLVESGGGLVQAGGSLRLSCAASGRIFYFNAMGWYRQAPGKERELDAAISWSGGSTYYADSVKGRFTISRDNAKNTVYLQMNSLKPEDTAVYSCATDSYRQGDYYRGRVDYWGQGTQVTVSS”, the “polyreactivity (PSR sort gate)” value was “low polyreactivity”.

With “QVQLVESGGGLVQAGASLRLSCAASGRIFHHNVMGWYIQAPGKERELVAAISQSGGSTYYADSVKGRFTISRDNAKNTVYLQMNSLKPEDTAVYYCNDGAAGRRYNYWGQGTQVTVSS”, the “polyreactivity (PSR sort gate)” value is listed as “low polyreactivity”.

For “QVQLVESGGGIVQAGGILRLSSAASGRIFLGYAMGWSRQAPGKERELVASISGPAGSTNYADSVKGRFTISRDNAKNTVYLQMNSLKPEDTAVYYCAAEERYAYRYDYWGQGTQVTVSS”, the “polyreactivity (PSR sort gate)” value is recorded as “high polyreactivity”.

Consider “QVQLVESGGGLVQAGGSLRLSCAASGSTFYAYAMGWYRQAPGKERELVAAISSDGTNYADSVKGRFTISRDNAKNTVYLQMNSLKPEDTAVYYCAADEASSRGYYDYDYWGQGTQVTVSS”, for which the “polyreactivity (PSR sort gate)” value is “low polyreactivity”.

As to “QVQLVESGGGLVQAGGSLRLSCAASGSTFYYYAMGWYRQAPGKERELVAAITYSGGSTTYADSVKGRFTISRDNAKNTVYLQMNSLKPEDTAVYYCAAYVYRYHRVAYEYWGQGTQVTVSS”, the “polyreactivity (PSR sort gate)” value is recorded as “high polyreactivity”.

For the sequence “QVQLVESGGALVQAGGSLRLSCAASGRIFRGYAMGWYRQAPGKERELVAAISSRGSRTYYADSVKGPFTISRDNAKNTVYLQMNSLKPEDTAVYYCAADVPGVTTSYAPYDSEYWGQGSQVTVSS”, the “polyreactivity (PSR sort gate)” value was “high polyreactivity”.

“QVQLVESGVCIVQAGGSLRLSGADSGNTLIQYAMRWYRQPHGKERELVAGISGSDDSTYYADSVKGRFTISRDNAKNTVYLQMNSLKPEDTAVYYCAALSISPSRTGYYWGQGTQVTVSS”: the “polyreactivity (PSR sort gate)” value is recorded as “low polyreactivity”.

Consider “QVQLVESGGGLVQAGGSLRLSCAASGRTFSKNAMGWYRQAPGKERELVADISRRGGRTYYADSVNGRFTISRDNAKNTVYLQMNSLKPEDTAVYYSAARRRGSVGVGYAYPYNYWGQGTQVTVSS”, for which the “polyreactivity (PSR sort gate)” value is “high polyreactivity”.

Consider “QVQLVESGGGLVQAGGSLRLSCAASGSTFKRYAMGWYRQAPGKERELVAAITNGDRTNYADSVKGRFTISRDNAKKTVYLQMNSLKPEDTAVYYCAAAYSRYTSRFYYWGQGTQVTVSS”, for which the “polyreactivity (PSR sort gate)” value is “high polyreactivity”.

For the sequence “QVQLVESGGGLVQAGGSLRLSCAASGFIFGYYAMGWYRQAPGKERELVAAISGDAGRTYYADSVKGRFTISRDNAKNTVYLQMNSLKPEDTAVYYCAAADTYKMDYWGQGTQVTVSS”, the “polyreactivity (PSR sort gate)” value was “low polyreactivity”.

Take “QVQLVESGGGLVQAGGRLRLSCAASGSTFLNYAMGWYRQAPGKQRELVSSIDSSDGRTYYADSVKGRFTISRDNAKNTVYLQMNSLKPEDTEVYYCAKDSYAVELRPYSKLSSRADGYWGQGTQVTVSS”: the “polyreactivity (PSR sort gate)” value is recorded as “low polyreactivity”.

As to “QVQLVESGGGLVQAGGSLRLSCAASGRTFYTYAMGWYRQAPGKERELVAAITRRGGSTFYADSVKGRFTISRDNAKNTVYLQMNSLKPEDTAVYYCAARSTVGPQYGVRFNYWGQGTQVTVSS”, the “polyreactivity (PSR sort gate)” value is reported as “high polyreactivity”.

Turning to “QVQLVESGGGLVQAGGSLRLSCAASFRYNDMGWYRQAPGKERELDAAISSGASTSYPDSVKGRFTISRDNAKNTVYLQMNSLKPEDSAVSYCAAETYELYGLNEYDYWGQGTQVTVSS”, the “polyreactivity (PSR sort gate)” value was “low polyreactivity”.

Regarding “QVQLVESGGGLVQAGGSLRLSCAASGSTFQPYAMGWYRQAPGKEREFVATISGSAGSTYYADSVKGRFKISRDNAKNTVYLQMNSLKPEDTAVYYCNADSGWFGYDYWGQGTQVTVSS”, the “polyreactivity (PSR sort gate)” value was “low polyreactivity”.

With “QVQLVESGGGLVQAGGSLRLSCAASGFTFTRYAMGWYRQAPGKERELVAAITRSGSSTYYADSVKGRFTISRDNAKNTVYLQMNSLKQEDTAVYYCAARLHSPRYRYDYWGQGNQVTVSS”, the “polyreactivity (PSR sort gate)” value is listed as “high polyreactivity”.

As to “QVQLVESGGGLVQAGGSLRLSCAASGFILAYYAMGWSRQAPGKERELVAAISIGSSTDYADSVKGRFTISRDNAKNTVYLQINSVKPEDTAVYDFAARDYYYEYDYWGQGTQVTVSS”, the “polyreactivity (PSR sort gate)” value was “low polyreactivity”.

Turning to “QVQLVESGGGLVQAGGSLRLSCAASGITFDLYDMGWYRQAPGKERDFVAAITDADSTYYADSVKGRFTISRDNAKNTVYLQMNSLKPEDTAVYYCAADFFYSVYSGHYDYWGQGTQVTVSS”, the “polyreactivity (PSR sort gate)” value was “low polyreactivity”.

With “QVQLVESGGGLVQAGGSLRLSCAASGRTFGTYAIVWYRPAPGKERELVAAITRRGGSTYYADSVKGRFTISRDNAKNTVYLQMNSLKPEDTAVYYCAARWFRYVPYSFPYLYKYDYWGQGTQVTVSS”, the “polyreactivity (PSR sort gate)” value is recorded as “low polyreactivity”.

With “QVQLVESGGGLVQAGGSLRLICAASGFTFGYNDMGWYRQAPGKERELVATITRSAGRTYYADSVKGRFTISRDNAKNTVYLQMNSLKPEDTAVYYCASSYWDTEPGYREYDYWGQGTQVTVSS”, the “polyreactivity (PSR sort gate)” value was “low polyreactivity”.

Turning to “QVQLVESWGGLVQAGGSLSLSCAASGRIIARNAMGWYRQAPGKEREFVAAISFSDGSTYYADSVKGRFTISRDNAKNTVYLQMNSLKPEDSAVYYCNKGASPDDYDYWGQGTQVTVSS”, the “polyreactivity (PSR sort gate)” value is recorded as “low polyreactivity”.

As to “QVQLVESGGGLVQAGGSLRLSCAASGFTFVDYMGWYRQAPGKERELVAAIDNSGGGTYYADSVKGRFTISRDNAKNTVYLQMNSLKPEDTAVYYRYAYTFYIYEDVLYVQGDYYWGQGTQVTVSS”, the “polyreactivity (PSR sort gate)” value is listed as “low polyreactivity”.

On to “QVQLVESAGGLVQAGGSLRLSCGASGRIFYYNTMGWYRQAPGKERELVAAITTNGGSTYYADSVKGRFTISRDNAKNTVYLQMYSLKPEDTAVYYCNRDRYPYYYAYNYWGQGTQVTVSS”, for which the “polyreactivity (PSR sort gate)” value was “low polyreactivity”.

For “QVQLVESRGGLVQAGGSLRLSCAASGSTFGQYPMGSYRQEPGKERELVATITSPGSTNYADSVKGRFTISRDNAKNTVYFQMNSLKPEDSAVYYCNAVTGYWDGTEARQPYDYWGQGTQVTVSS”, the “polyreactivity (PSR sort gate)” value was “low polyreactivity”.

Consider “QVQLVESGGGLVQAGGSLRLSCAASGITFQPYAMGWYRQAPGKEREFVAVISFRGGSTYYADSVKGRFTISRDNAKNTVYLQMNSLKPEDTAVYYCAALEYHGHTGGRVYYWVQGTQVTVSS”, for which the “polyreactivity (PSR sort gate)” value is given as “high polyreactivity”.

Regarding “QDQLVDSGGGLVQAGGSLRLSCAASGNIFTFNAMGWYRQAPGKERELVAAISRGGRTNYADSVKGRFTISRDNAKNTVYLQMNSLKPEDTAVYYCAAEFPQRASGGRYKTEYDYWRQGTQVTVSS”, the “polyreactivity (PSR sort gate)” value is “low polyreactivity”.

As for “QVQLVESGGGLVQAGGSLRLSCAASGSIFSNYAMGWYRQAPGKERELVAAISRSGGSTRYADSVKGRFTISRDNAKNTVYLQMNSLKPEDTAVYYCNAVRYPRLMYYWGQGTQVTVSS”, the “polyreactivity (PSR sort gate)” value is on record as “high polyreactivity”.

As to “QVQLVETGRGLVQAGGSLRISCAPCGFTFWRNAMGGYRQAPGKERELVAAINWSGGSPYYADSVKGRFTISRDNAMNTVYLQINSRKADDTAVYYCNRRGQYTFWPIHEYWGQGTQVTVSS”, the “polyreactivity (PSR sort gate)” value is given as “high polyreactivity”.

For the sequence “QVQLVESGGGLDQAGGSLRLSCAASGNIFYGNAMGWSRQAPGKERELVAGITSGGSTNYADSVKGRFTISRDTAKNTVYLQMTSLKPEDTAVYYCNATSSGSIFGYEYWGQGTQVTVSS”, the “polyreactivity (PSR sort gate)” value is on record as “low polyreactivity”.

Take “QVQLVESGGGLVQAGGSLRLSCAASGRTFKRYAMGWYRQAPGKERELVAGISRGGNTNYADSVKGRFTISRDNAKNTVYLQMNSLNPEDTAVYYCNKDYSFEYSLRNRDYWGQGTQVTVSS”: the “polyreactivity (PSR sort gate)” value is on record as “low polyreactivity”.

For the sequence “QVHLVESGGGLVQAGGSLRLSCAATGSTFSNYAMGWNRQAPGKERELVASISNGGSTNYADSVKGRFTISRDNANNTVYLQMNSLKPVDTEVYFCIAESKAKYDYWGQGTQVSVSS”, the “polyreactivity (PSR sort gate)” value is “low polyreactivity”.

As to “QVQLVESGGGLVQAGGSLRLSCAASGFTLYDNAMGWYRQAPWKERELVAAISWSGGSTYYADSVKGRFTISRDNAKNTVYLQMNRLKPEDTAVYYCATDFVSYAEGRMEYWGLGTQVTVSS”, the “polyreactivity (PSR sort gate)” value is “low polyreactivity”.
